This assay has as its target Porcine RNA polymerase II (porcine) (UniProt I3LGP4). The experiment in a line: mass photometry; Pol II or Pol II-Gdown1 complex with GPN1-GPN3 and/or RPAP2 in a 1:2:2 molar ratio, 30 minutes at 4 °C; measured at 20 nM; 20 mM HEPES-NaOH pH 7.9, 100 mM NaCl, 2 mM MgCl2, 10 µM ZnCl2, 1 mM DTT.

Experimental findings from paper PMC13486763 are described below.

Turning to “Porcine RNA polymerase II (from UniProt I3LGP4 127-1300; P60899 1-125; A0A4X1VYD0 1-67; A0A8D0JYF1 1-58) (complex)”, the stoichiometry N – broadly, the number of molecules, sites or subunits per partner or assembly – came to 2.
